The values below come from US8008547B2, “Glyphosate-N-acetyltransferase (GAT) genes” (E.I. duPont de Nemours, priority 2000, dated 2011).

Data set [1] concerns maize plants. Put plainly: T1 field glyphosate spray of maize expressing GAT transgenes. It counts as in vivo. The conditions noted are these: 0×, 4×, 8×, and 4×+4× sprays at V3 and V8; scored 10 days after treatment. The protocol:
Maize plants expressing GAT variant transgenes 18-28D9b (SEQ ID NO:814) and 17-15H3 (SEQ ID NO:549) were produced using the methods described in Example 13. T1 plants were used for the generation of glyphosate field-tolerance data. The T1 plants were treated in the field with four different glyphosate spray treatments (0×, 4×, 8×, and 4×+4×) for each event. The plants were sprayed at V3 and V8. Plants were scored 10 days after treatment for leaf discoloration and plant height comparisons as described in Example 13. […] T2 seeds were collected for further studies.

The subject of data set [2] is maize plants. Put plainly: Effect of temperature variation on glyphosate tolerance of T1 maize expressing GAT transgenes. It counts as in vivo. The conditions noted are these: cool/cold, warm and hot conditions; 0×, 4×, 6×, 8× at V2; scored at 5 and 14 days. The protocol: Maize plants expressing GAT variant transgenes 10—4F2 (SEQ ID NO:202), 17-15H3 (SEQ ID NO:549), and 18-28D9b (SEQ ID NO:814) were produced using the methods described in Example 13. The effect of temperature on glyphosate tolerance was evaluated in T1 plants. The T1 plants were grown in cool/cold (day 14° C., night 8° C.), warm (day 28° C., night 20° C.), and hot (day 37° C., night 20° C.) conditions. T1 plants were sprayed at V2 with four different glyphosate spray treatments (0×, 4×, 6×, and 8×). Plants were scored at 5 and 14 days after treatment for leaf discoloration and plant height comparisons as described in Example 13.

Data set [3] can be described thus: GAT activity (acetylation of glyphosate), general statements. It counts as biochemical. To be noted: native YitI of Bacillus subtilis. The text has this:
As used herein, the term “glyphosate-N-acetyltransferase activity” or “GAT activity” refers to the ability to catalyze the acetylation of the secondary amine group of glyphosate, as illustrated, for example, in FIG. 1. A “glyphosate-N-acetyltransferase” or “GAT” is an enzyme that catalyzes the acetylation of the amine group of glyphosate, a glyphosate analog, and/or a glyphosate primary metabolite (i.e., AMPA or sarcosine). In some preferred embodiments of the invention, a GAT is able to transfer the acetyl group from Acetyl CoA to the secondary amine of glyphosate and the primary amine of AMPA. […] The exemplary GATs described herein are active from pH 5-9, with optimal activity in the range of pH 6.5-8.0. Activity can be quantified using various kinetic parameters which are well known in the art, e.g., kcat, KM, and kcat/KM. These kinetic parameters can be determined as described below in Example 7.

A short description of data set [4]: KM for Acetyl CoA by mass spectrometric detection of N-acetyl glyphosate. To be noted: for Km: read-out: apparent KM for Acetyl CoA, 5 mM glyphosate, 0.19 μM GAT, pH 7.7, 50% methanol. It counts as biochemical. The protocol: Initial reaction rates were determined using mass spectrometric detection of N-acetyl glyphosate. Five μl were repeatedly injected into the instrument and reaction rates were obtained by plotting reaction time vs. area of the integrated peak (FIG. 6). Hyperbolic saturation kinetics were observed (FIG. 7), from which an apparent KM of 2 μM was derived.
KM for Acetyl CoA was measured using the mass spectrometry method with repeated sampling during the reaction. AcetylCoA and glyphosate (ammonium salts) were placed as 50-fold-concentrated stock solutions into a well of a mass spectrometry sample plate. Reactions were initiated with the addition of enzyme appropriately diluted in a volatile buffer such as morpholine acetate or ammonium carbonate, pH 6.8 or 7.7. The sample was repeatedly injected into the instrument and initial rates were calculated from plots of […] and peak area. KM was calculated as for glyphosate.

Data set [5] in a line: Transfer of the propionyl group from propionyl CoA to glyphosate (DTNB). Format: biochemical. To be noted: 1 mM propionyl CoA, 5 mM glyphosate or no glyphosate, 30 minutes. The procedure:
The ability of GAT variants (B6 (SEQ ID NO:7), 0—6D10 (SEQ ID NO:448), 17-15H3 (SEQ ID NO:601), and 20-8H12 (SEQ ID NO:816)) to transfer the propionyl group from propionyl CoA to glyphosate was tested in reaction mixtures containing 5 mM glyphosate or no glyphosate. Propionyl CoA was present at 1 mM. After 30 minutes the reactions were terminated and the presence of free […] was determined by the addition of DTNB.

Data set [6] is described as follows: Apparent KM for glyphosate of purified GAT from B. licheniformis strain B6 (spectrophotometric, 235 nm). To be noted: 200 μM Acetyl CoA, 1 μM purified GAT, pH 7.7, 20% ethylene glycol. Format: biochemical. The text has this:
Hyperbolic saturation kinetics were observed (FIG. 5), from which an apparent KM of 2.9±0.2 (SD) mM was obtained.

B1: SEQ ID NO:549: GAT variant transgene (nucleic acid)
DNA: ATGATAGAGGTGAAACCGATTAACGCAGAGGATACCTATGAACTAAGGCATAGAATACTCAGACCAAACCAGCCGATAGAAGCGTGTATGTTTGAAAGCGATTTACTTCGTGGTGCATTTCACTTAGGCGGCTATTACGGGGGCAAACTGATTTCCATAGCTTCATTCCACCAGGCCGAGCACTCAGAACTCCAAGGCCAGAAACAGTACCAGCTCCGAGGTATGGCTACCTTGGAAGGTTATCGTGAGCAGAAGGCGGGATCGAGTCTAATTAAACACGCTGAAGAAATTCTTCGTAAGAGGGGGGCGGACTTGCTTTGGTGTAATGCGCGGACATCCGCCTCAGGCTACTACAAAAAGTTAGGCTTCAGCGAGCAGGGAGAGGTATTCGACACGCCGCCAGTAGGACCTCACATCCTGATGTATAAAAGGATCACATAA
modifications: Synthetic DNA Sequence; D_S00260796_17-15H3
notes: GAT variant transgene
In the case of B1, in the data set with maize plants [1], the “T1 field glyphosate tolerance” value was “correlated well with the results previously obtained in the greenhouse”. Further, the “effect of temperature on glyphosate tolerance” value (“effect of temperature” for short) in the data set with maize plants [2] was “glyphosate tolerance is not adversely effected by the range of temperatures tested”.

B2: YitI: most closely related sequence available in Genbank, yitI from Bacillus subtilis (protein, UniProt O06744 1-149, looked up)
Uncharacterized …: MLEVKTISVEDTYEIRHRILRPHQSIEQCKYKEDHAEGSFHLGVFYDGTLISIASFSPQSQPLLTEASAYRLRGMATLEGYRDQKAGSTLIKHAEHKLAESGVQAVWCNARHHVKGYYAKLGWKELGEPFDIPGIGNHIVMYKTLRTSR
In the case of B2, the GAT activity result in data set [3] is “detectable GAT activity”.

B3: SEQ ID NO:814: GAT variant transgene (nucleic acid)
DNA: ATGATAGAGGTGAAACCGATTAACGCAGAGGATACCTATGAACTAAGGCATAGAATACTCAGACCAAACCAGCCGATAGAAGCGTGTATGTTTGAAAGCGATTTACTTCGTGGTGCATTTCACTTAGGCGGCTTTTACAGGGGCAAACTGATTTCCATAGCTTCATTCCACCAGGCCGAGCACTCGGAACTCCAAGGCCAGAAACAGTACCAGCTCCGAGGTATGGCTACCTTGGAAGGTTATCGTGAGCAGAAAGCGGGATCAACTCTAGTTAAACACGCTGAAGAAATCCTTCGTAAGAGGGGGGCGGACATGCTTTGGTGTAATGCGCGGACATCCGCCTCAGGCTACTACAAAAAGTTAGGCTTCAGCGAGCAGGGAGAGATATTTGACACGCCGCCAGTAGGACCTCACATCCTGATGTATAAAAGGATCACATAA
modifications: Synthetic DNA Sequence; CDS (1)...(441); 18-28D9b
notes: GAT variant transgene
For the molecule B3, the “T1 field glyphosate tolerance” value in the data set with maize plants [1] was “correlated well with the results previously obtained in the greenhouse”. Besides, the “effect of temperature” value with maize plants [2] is on record as “glyphosate tolerance is not adversely effected by the range of temperatures tested”.

B4: SEQ ID NO:202: GAT variant transgene (nucleic acid)
DNA: ATGCTAGAGGTGAAACCGATTAACGCAGAGGATACCTATGAACTAAGGCATAGAATACTCAGACCAAACCAGCCGATAGAAGCGTGTATGTTTGAAAGCGATTTACTTCGTGGTGCATTTCACTTAGGCGGCTTTTACAGGGGCAAACTGATTTCCATAGCTTCATTCCACCAGGCCGAGCACTCAGAACTCCAAGGCCAGAAACAGTACCAGCTCCGAGGTATGGCTACCTTGGAAGGTTATCGTGAGCAGAAAGCGGGATCGAGTCTAATTAGACACGCTGAAGAAATTCTTCGTAAGAGGGGGGCGGACATGCTTTGGTGTAATGCGCGGACATCCGCCTCAGGCTACTACAAAAAGTTAGGCTTCAGCGAGCAGGGAGAGATATTTGAAACGCCGCCAGTAGGACCTCACATCCTGATGTATAAAAGGCTCACATAA
modifications: Synthetic DNA Sequence; 10_4F2
notes: GAT variant transgene
For B4, in the data set with maize plants [2], the “effect of temperature” value is listed as “glyphosate tolerance is not adversely effected by the range of temperatures tested”.

B5: SEQ ID NO:7: GAT enzyme isolated from a strain of B. licheniformis (strain B6) (protein)
chain: MIEVKPINAEDTYEIRHRILRPNQPLEACKYETDLLGGTFHLGGYYRDRLISIASFHQAEHSELEGQKQYQLRGMATLEGYREQKAGSTLIRHAEELLRKKGADLLWCNARTSVSGYYKKLGFSEQGGVYDIPPIGPHILMYKKLT
modifications: Unidentified microorganism derived from soil sample.; B6 GAT
As for B5, in data set [4] (calculated from Vmax at a known concentration of enzyme), the Kcat is 0.1 s⁻¹. Besides, the Michaelis constant (Km) (usually the substrate concentration at which the rate is half of its maximum) in data set [4] was roughly 2 µM; in data set [4] (listed as B6), 2 µM; in data set [6] it was roughly 2900 µM; in data set [6] (listed as B6), 2900 ± 200 µM. Further, the “transfer of propionyl group to glyphosate” value in data set [5] is “glyphosate-dependent hydrolysis of propionyl CoA”.
